1 molecule from publication PMC5496667 can be followed below.

This assay deals with GFP-tagged Tubulin (fusion construct of Tubulin and GFP). Nature of the assay: FRET or BRET. (In BRET a luciferase serves as donor, and the signal depends on an acceptor being close.)

B1: DsRed-tagged Ccdc181 (FACS-FRET construct) (natural protein)
chain: MDEDKDIDSKESGEYEDDFEKDLEWLINDKEKSNGSTIEMACKKEDDLDQVLKENETETELGQQLSDPDNSPKDEALPRRNDFISVPSIQPLDPISDSDSENSFQDSKPENQKDLEDEEDEEVRRYIMEKIIEANKLLQTQEPVNDKRERKLKFKDKLVDLEVPPLEDSDTCKALLENETNMSGKLSQLCISGDLEQESVLVSVTDGSCEENDRKILVERDGKFELMNLQDIESQGFLPPISSANSVEHESSQLPLRAPNPSVGGIKKEESEAKGHVLPISPAGEPLAQVPQLLPNPKNRPSSAANPDVTKKARRSNHRIQSAGVSPVTSTYCLSPRQKELQKQLERKREKLKREEEQRKLEEENEKKKENEMVFKAWLQKKREQVIEMRRVQRAKQIEDMSSRQVNRDPQQAFRLWLKKKHEEQMKERKTEELRKQEECLFFLRGTEGRERAFRQWLRRKQIEKIAEQQAVKERARQLRLEARRSKQLQSSLYSIPEAKAFRFTDHYN
In turn, B1 returned a percent FRET positive cells of 29.4%.
